To fix the notation:
B1: Tryptophan synthase alpha chain, P0A877 (parent)
chain: MERYESLFAQLKERKEGAFVPFVTLGDPGIEQSLKIIDTLIEAGADALELGIPFSDPLADGPTIQNATLRAFAAGVTPAQCFEMLALIRQKHPTIPIGLLMYANLVFNKGIDEFYAQCEKVGVDSVLVADVPVEESAPFRQAALRHNVAPIFICPPNADDDLLRQIASYGRGYTYLLSRAGVTGAENRAALPLNHLVAKLKEYNAAPPLQGFGISAPDQVKAAIDAGAAGAISGSAIVKIIEQHINEPEKMLAALKVFVQPMKAATRS

Several values for one entry are separate records, joined by “and”; a condition that tells them apart may be missing. Identical values can stand only once.

The variants in this data set derive from B1. The settings on record: Escherichia coli (strain K12); pH 7.8; 23 °C; Urea; Absorbance; Potassium phosphate 10 mM; transition: 3; reversible: yes; structure 1WQ5; whole UniProt chain shown.

The results in this text go back to FireProtDB (doi:10.1074/jbc.270.30.17712).

As to F139W, the “ddG of mutation (higher = less stable)” value was 0.7 kcal/mol and 0.6 kcal/mol; the denaturant m value was 2.3 kcal/mol/M and 1.2 kcal/mol/M; the “denaturant midpoint (higher = more stable)” value (shortened to “denaturant midpoint”) was 2.46 M and 3.8 M; the unfolding free energy was 5.7 kcal/mol and 4.6 kcal/mol.
F258W: the “ddG of mutation (higher = less stable)” value was 1.4 kcal/mol and 1 kcal/mol; the denaturant m value is 1.9 kcal/mol/M and 1.2 kcal/mol/M; the “denaturant midpoint” value is 2.68 M and 3.58 M; the unfolding free energy was 5 kcal/mol and 4.2 kcal/mol.
On to F139W F258W, for which the “ddG of mutation (higher = less stable)” value turned out to be 0.8 kcal/mol; the denaturant m value was 2.1 kcal/mol/M and 1.3 kcal/mol/M; the “denaturant midpoint” value was 2.67 M and 3.51 M; the unfolding free energy was 5.6 kcal/mol and 4.4 kcal/mol.
